Measurements taken from the DeepSol protein solubility set.

Test: soluble on expression in E. coli; label from the status in PepcDB or PDB records

Row | Sequence | soluble on expression in E. coli
1 | MGSDKIHHHHHHMNTPFMLHQGTSPVILAFPHTGTEVPPAIWDRLDDNGRIFADTDWHIHTLYAGLLENATTVRATFHRYVIDANRDPAGVSLYPGQNTTGLVPETDFDGKPIWKTGAEPNEADIAHRLETFHAPYHAALAAEIERVKSIHGIAILYDCHSIRSHIPFLFEGKLPDFNIGTDMGKTCDPAIEKIAVEVTAAAQGYDSILNGRFKGGWTTRHYGKPQTGVHAIQMELAQSTHLQNEHPPFAYDTGKAERLRTHLKTILTRMEKFALDTK | not soluble
2 | MGSDKIHHHHHHMNTRSDVSKLIAQRKPRHALPRALYSNLAVYQQDLQQLWHKDWIFAGHTFELEKSGQYLSLQIGDYPVAVVRGADGQVRAFHNSCRHRGSKVCPEAKGKVAKLVCPYHKWTFELDGRLLFAGNMGDDFDKSQYNLKPVHCEIVNTYIYVCVAEAAPDFSAFREAVTPFLMPHNLEDCKVAFESNLIEKGNWKLVFENNRECYHCDGTHPELMNSFVENLSVAGVGGSDDPQLTAHWDRCEAAGLPSRLVMDNDGRFRITRIPLSSGAVSYTMDGKPAVAVRLDASGEADIGALLYFNYPSTWNHFLGDHALSFRVLPLGPNETLVTTKWIVKKTAVEGLDYDLDRLTKVWLATNDQDRTLVEGAQVGVNSPAYEPGPFSSKAENGVCQFDDWYCEIMLDRLGDDRAQASIKLKSVG | not soluble
3 | MGSDKIHHHHHHMNWLLNISTHGSDLEIAGPEWSEAVSLLRRTGMDGFELYPAGAYDCTAIPKEIVGGVHLRFFVMLRQIWQNDREGLLRMFGSEQTVRHYYSGVNREAVISCYRSQLELAARFNVPYVVFHPVHYELEYVFNWQPPWGWRETVDLSTEIINEVVRDTPYDGWILFENLWWPGNFRLDSTDEIDRLLSKVRWPKCGIVLDTAHILNKNQELRTEEEAIAFLLRQVERLGDYRQLIKAVHLSKSLSGEAAKAGFANADPFCGAHDFWQRFSIALRHVRDLDRHEPFSHSMLGELFDLIEPDNVVFELAFSSLDEWIGKIEQQQRALQRFFPECRIKENLY | not soluble
4 | MGSDKIHHHHHHMPALCSTVQTLEKLAKDDVSSLALLGRSVMHDNALTSRILRVANSAIYHKGSTQISTVSRAAIVLGFDAVRNICITAQLLSSLLESKNLAPSVYQRLIKLMAKAFQAAMLTRMMLSDYDDDIQEEAFIACLLFHIGESAFWSIGGEFTETLDSQLTECETSADERSLIRETIGTSFSQLTQSIARHWGLGELLIQAVNYPDDPRPEIRSIFLADKLCDTLSVATPDKNDLEKYINQAANFTGLDETEFTLKMQRCTKATHKLAEAYGAKVLIDYLPDPQRIDKLEPYLPEAELPIFEANLNVQLVKLRELTAFAINKADFNQIMQTVLEGILEGVGVDRCGVLLLSPSRKQLQPRIMLGRDAEEMKRQFIIELGDRKGLFPMAMEHKESLWVDSPCAKKWQEQCRELKVQLPESGFLVAPLLVDNKVIGFYYADRGPSERCFAEVDFQAFIHFSQLANVCFTVSLK | not soluble
5 | MGSDKIHHHHHHMPDTEEIARDSVVPPDVRRQAVNWLVELQSDIVTDETRDQWQKWRMSHPDHEYAWQQVEVFSRKLRGLPSPLAHAALTPPHSSSRRRAIKALTVLIFLGGGTWVAGEGRLWCWWPEDYCTGIGEHRAVTLSDGTGIELNSGSAITVNFDDTRRLIRLMNGEIMVTTAPDPRLANGIGAARPLLIETAQGILRAIGTRFTVRQFDVSQQGKSSVAVFEGAVEIQPITGRLRQLEVGQQAAFTRDGVIAVGMACEADTAWRQGMIVARDMPLIDFLAELGRHRSGWLSCDPAVAQLKVTGTYPLADIGKILAILQKTLPIDVQLFTRYWIRVGARQEDT | not soluble
6 | MGSDKIHHHHHHMPEFNYQKAFPLKKDPTPYKLISTDYVSTIEVDGRKILKIDPKALELVAEKALADVSFYLRSSHLEKLAKIIKDPEATDNDRFVAYTLLQNASTAGEGKLPSCQDTGTAIVMGKKGENVWTGANDEEALSKGIYNTYQEKNLRYSQVVPITMFEEKNSGTNLPAQIDIYAEQGNEYKFLFMAKGGGSANKTYLYQQTKALLNENSLAEFVKNKIKDLGTSACPPYHLALVIGGTSAEANLKAVKLASAGYYDELPTEGNMGGQAFRDLEWEEKVQLICQESLIGAQFGGKYFTHDVKVIRLPRHAASCPVGIGVSCSADRNIKAKITEEGIFIEALETNPEKFLPAQAPHLEKAVEVDLNQPMADVLKLLSQYPIKTRLKLKGTLIVARDIAHAKIKELLDAGKPMPEYFKNHPVYYAGPAKTPEGMPSGSFGPTTAGRMDSYVNLFQSQGGSMIMLAKGNRSKAVTDACKEFGGFYLGSIGGPAAILAKENIKSVEVVDFEELGMEAVRKIEVVDFPAFIICDDKGNDFFANL | not soluble
7 | MGSDKIHHHHHHMPGNSSGVAAVERAVSMLEAFTDVDYSLTLGELARRTELDKSTVLRIARSLAKSSMLVRNDDASWRLGPKLVRLGGLYQSTFKSSAIVEPLLAQISDESGESAAVYVKEGVVRVCLHRHDSTQSIRHSARVGDAMPLDRGAPGRVILAFTGSSGKLYDDIRAKGFHVTIGERDPQVASVAVPVYRDGQALFGSLALTGPPSRFNEEAVSKNLEILRVAARKLSAALGGDPG | not soluble
8 | MGSDKIHHHHHHMPGQLKVTLLDSPNPLSKANPIHLKPLVNHCMDCRVSGLCLPTGLPVDENSCLGALIGPRMRIRKGAALFNANDPLTMLYALRCGSFKTSLNTAEGQGVVINFWMPGDVIGLDAIATEHHVCDAIALEDSEVCPVPYRRLQTLAREFPDLQQSLNRLMSREIVREHGRVLMLCNLTAEQRLASFLVGLSRRFVSRGYSAHGFMLRMSREDMASYLGLRLETVCRSVARLRALGIVDLHGRLVEILDMPALMALEQGGGECEAKGP | not soluble
9 | MGSDKIHHHHHHMPINKLALVRYKTIDSCLQNRFRKWTLEDLMEACSDALYEYEGMTKGISRRTIQLDIQNMRSEKLGYNAPIIVTDKKFYSYEDKGYSITNSPLTQQDLGTLVEVLDVLKQFKGFGYFQELTGMVTRLEDKLYTHQHKGKSYIDFEKNELLKGLQHIDLLHKAIINKKTVDILYQSFKAASAQNITFYPYLLKEYRNRWFILGCNKRTKATMILALDRIEQFKELRSEKYMKPDFDVATYFDDVIGVSKMPNQEPQLIVCKISKEHAPYIITKPIHASQQIIRGEKDGTVFSIHVIWNFELERELLGFGEQLQVLAPRRIQGKLRARMKRAVAAYESEKKE | not soluble
10 | MGSDKIHHHHHHMPINSFENYPMTWKPKLDNRKPPIYKTLAMLLEEDIKRGNLNPGDKLPPQRELADFLDLNLSTITRAFKLCEEKGLICAKVGKGTFISSDVNVSNTLLYQTESKDIIELGTVHPPYEQNTYIIDFIKNVLKQPEMDRFLQYMSPSGTYMQKKSIAKWIERNNVYTSEENILLSTGGQNAICATLLGLFKAGDRIATDSLSFSGIKSIAKMIGIQLVPIPQENNEISIEYLESYCKNENIKGIYLIPDYHNPTTHTMSDLSRKKIAKIAKQYNIIIIEDAINSIFRDGIQTPIFSLASDNTIYIFSTSKFLCAGLRVAFVVAPKRYIENLENALYNMNLMVSPFTAEIVHRLLYSPIIDKIIEEKRDAIIERNEVADKVLSDYNLIGDKNCSFRWLLLPDELDGKSFEISAKNLGVQVYCAERFSVGNSTVPKAVRICVTAPKDVEELEKGLNIIKSLLKS | not soluble
11 | MGSDKIHHHHHHMPIVTIGIDLAKNIFAVHGVDEAGKAMLIKPRVPRDQLATLIAQLPACLIGMEACSGAHHWARLFQQHGHTVKLMAPNLVAPYRMSGKRGKNDAADAAAICEAVARPSMRFVPLKDEHQQATLCLHRTRQGFVEERTATYNRLRGLLPEFGVVLPQSPEKLRRYVTEHLDALPGWAKRSIGDLLEHAGHIEDRLLEYDRAIAEIAREDARSKRLMQLRGVGPTTASALLASIGAGRDFRNGRQVAAWIGLTPGQYSSGGKARLGSITKAGDAYLRGLLVNGARAVIANLGEKQDRFSRWVRTLIERRGYWRAAVAIAAKNARLAWASLKYGEDFKLEPAAD | not soluble
12 | MGSDKIHHHHHHMPKRIVKLEAGYNCRDLGGYVSQDGRTVKWGRLYRSGSLSHLTKADQAELARRKIVVDCDLRSRHEQDNFPDKLWPGSKLVDAHFYSESGDEEEEAEAAWEKYSSKLPKLSYLAMVYQQNLVVPRTGLVMREIFKEMLDLEDDEALLYHCSMGKDRTGMVSVIVLMALGLEDREILRDYLLSREYSRDWDEADENDRLGKQIAKMNQTQVSQTAFYGITETIRQMWGGFDRYFASLGFDQGDLDRLRDKFLE | not soluble
13 | MGSDKIHHHHHHMPKSVQDDAIEAGTLLSVQGLTVGLPPGMDRRYAVEDMSFDLKAGEILCIIGESGSGKSVTANATMGLLAQSLHIVSGSIMLEGQELVGADAATLRALRGRIVSMIFQDPLSALNPLMTVGDQIAEVMEAHGIGTQQERRARVLDLITEVGLPDPELMQHQYPFRLSGGQRQRVMIAMALALEPKVLIADEPTTALDVTTQAQILELIASIQRRKQMSVMFITHDFGVVAEIADRVIVMEKGHVVEQGSASVVLKSPDHPYTQRLIAAVPRMRASDRENEADTPVVLEARNLCKTYGTGSGFLSKGRVIKAVDDVSFTIAKGRTLGIVGESGSGKSSLGRLLVKLMNSDSGEILFGGRDIAPLSEEAFRSMRPYIQMIFQDPFASLNPRQTIGRILTVGPVAQATPIHEARTRAMRLLERVGLDAGAYDRYPHEFSGGQRQRIGIARALMFNPMLIVADEAVSALDVSIQAQILQLLTEVQQEMKLAMAFITHDLRVASQICDEIAVMYKGRIVEYGPPSQIFRNPTHDYTRQLVSAIPGTEWEPAVMV | not soluble
14 | MGSDKIHHHHHHMPLLDIRNLTIELDTPHGRVKALEKVSLMLHAGEIHGLVGESGSGRSLLARAVLGIPGPNWTITADRMMWDGRNLMEMSDVERRNLMGKDMAMIFQDPSGSLDPVITIGAQLIEAMPADKNVPFWRRGRERRLTAQKWLHKVGIKDPKRVMASYPWETSEGECQKVMIAMALANQPRLLIADEPTNSMEPSTQAQIFRLLAQLNQLQGVTIMMISHELETLADWCNNLTVLYCGQVMESGPIDELIREPLHPYTKALMDHLPDYRGNLPHKSLMPVLPGSAPALQHLPIGCRLGPRCPEARRECVHQPQLQHQKDRYYACHFPYRTETNNDDTAA | not soluble
15 | MGSDKIHHHHHHMPLLPQPAGSVTTGRYTFAAAQVHAQTLTVCIVCNNTLYPAGSAVMSRVNVSLLQSGMILSEDVTDSNGRKLLCAGDAITEKHLRILKIWGVAEVDVEGIEPADAARSALDGLDPLRVEAAAARATARFALNDLQYEPVCMLMQCSVAALAKGADPVAPLPDYSVLPAAPMPSAPPALADMLRDDTRLGSLPPVFHRLVDVVNDPRSSATDMAEVIANDTDLSARLLRLVNSTFYGLRAKVDTITRAVTIIGSNQLVSLAMGAVMTTFFKGLPNSIVDMRSFWEHSVACGVAARLLASLHRMPNTERFFVAGLLHDIGRLAVYRLLPEHSLYMLTESRRRGISMRAMEREVLGFSHDRLGGRLLKEWRCPVSLERNVALHHTPGSGHGGLESAIINVADILAHTLEFGTSGEVLVPRLEQAVWDALALPAGTLEQAAAQMDYQVHEIIRFFELDE | not soluble
16 | MGSDKIHHHHHHMPLTMNKDVFITCAVTGSGSTQDRSPHVPRSPKQIAESAIEAARAGAAIVHCHVRDPESGAPSRDLSYYREVTDRIREADIDVVLNLTAGMGGDITFGSTDAPFPVDEAGTDMVGAAERVAHIADCLPEICTLDCGTMNFAEADYVMTNTPGMLRAMGRMMTDLGVKPEIEAFDTGHLWFAKELVKEGVLDSPALVQLCMGVPWGAPDDLNTFMAMVNNVPDNWTFSAFALGRNEMAYVAASVLAGGNVRVGLEDNLWLEKGVLATNAQLVEQAVGIIEGMGARVIGPDMVRETLGLTKQAPA | not soluble
